Measured values from the supplement of paper PMC10065799, “High-throughput profiling of sequence recognition by tyrosine kinases and SH2 domains using bacterial peptide display” (eLife, 2023).
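Throughout, for SH2 binding enrichment of the phosphorylated peptide, bacterial display: peptide library displayed on the E. coli surface as eCPX fusions, selected cells deep-sequenced, score is each peptide's frequency after selection divided by its frequency in the input.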
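Throughout, for phosphorylation enrichment, bacterial display: 11-residue human phosphosite peptides and single-mutation variants displayed on the E. coli surface, counted by deep sequencing, each peptide's frequency after selection divided by its frequency in the unselected input library; frequency after pTyr selection over input frequency; kinase dosed for 20-30% of maximal phosphorylation in three min.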

The sequences below were run against Jak2 (UniProt O60674) (assay: phosphorylation enrichment, bacterial display (enrichment ratio); higher = better substrate or ligand; peptides without Tyr show the background).
Jak2, sequence (O60674 whole entry, looked up): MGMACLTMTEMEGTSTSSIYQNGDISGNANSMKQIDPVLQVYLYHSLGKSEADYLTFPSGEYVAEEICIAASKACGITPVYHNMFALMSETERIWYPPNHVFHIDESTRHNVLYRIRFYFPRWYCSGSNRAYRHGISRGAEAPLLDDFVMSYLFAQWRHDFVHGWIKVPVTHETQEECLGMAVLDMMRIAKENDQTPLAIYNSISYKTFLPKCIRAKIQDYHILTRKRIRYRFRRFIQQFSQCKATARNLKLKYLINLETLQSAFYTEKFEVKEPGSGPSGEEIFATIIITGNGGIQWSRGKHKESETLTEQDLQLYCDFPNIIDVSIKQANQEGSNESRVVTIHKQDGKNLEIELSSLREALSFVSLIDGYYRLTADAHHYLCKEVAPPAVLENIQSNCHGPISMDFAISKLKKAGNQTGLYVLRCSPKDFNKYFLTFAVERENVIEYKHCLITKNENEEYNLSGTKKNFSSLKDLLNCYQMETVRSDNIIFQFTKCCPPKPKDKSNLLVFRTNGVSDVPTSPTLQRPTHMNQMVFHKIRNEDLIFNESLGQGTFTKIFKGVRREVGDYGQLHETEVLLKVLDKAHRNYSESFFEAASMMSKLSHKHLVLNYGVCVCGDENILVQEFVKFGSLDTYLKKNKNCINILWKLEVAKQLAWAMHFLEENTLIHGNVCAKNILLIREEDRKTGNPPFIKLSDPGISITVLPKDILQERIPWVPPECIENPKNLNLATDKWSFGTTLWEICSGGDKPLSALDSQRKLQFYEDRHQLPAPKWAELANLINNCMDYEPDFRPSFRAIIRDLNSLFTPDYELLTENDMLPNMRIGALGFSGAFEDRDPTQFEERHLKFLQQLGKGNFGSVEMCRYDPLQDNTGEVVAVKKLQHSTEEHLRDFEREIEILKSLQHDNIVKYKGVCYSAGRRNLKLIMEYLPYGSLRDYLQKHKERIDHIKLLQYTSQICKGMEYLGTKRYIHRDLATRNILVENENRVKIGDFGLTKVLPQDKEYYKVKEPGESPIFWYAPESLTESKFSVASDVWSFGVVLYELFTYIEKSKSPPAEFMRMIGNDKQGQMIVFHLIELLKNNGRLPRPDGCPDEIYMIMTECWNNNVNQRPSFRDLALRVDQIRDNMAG
For SLNEGYARDFD [FBP1_Y216], the phosphorylation enrichment was 0.908. Sequence SYPREYGSQEG [RBM10_Y48] has a phosphorylation enrichment of 0.673. In the case of CSRCFYQLTKL [AR_Y858_R856C], the phosphorylation enrichment is reported as 0.728. Work on SSAAGYACLAY [MVD_Y131] yielded a phosphorylation enrichment of 1.02. QNTADYFDLFG [PTPN11_Y62_G60A_YF] showed a phosphorylation enrichment of 6.89. DNAFQYMLTDR [MYH7_Y164_YF] gave a phosphorylation enrichment of 0.738. GDFLSYREFHL [ERBIN_Y1107_S1112L_YF] gave a phosphorylation enrichment of 0.824. For VGTTAYVAPEA [IRAK4_Y354_M355V], the phosphorylation enrichment was 0.79. IEEGTYGVVFR [CDK11B_Y449_YF] was tested, and the phosphorylation enrichment was 1.38. Work on PQGVGYPQQQQ [EP300_Y2219_P2221Q] yielded a phosphorylation enrichment of 0.713. In the case of GIVEDYRPPVY [ACVRL1_Y421_F425V], the phosphorylation enrichment is reported as 0.77. Work on VTSLKYSTSPY [BRIP1_Y916] yielded a phosphorylation enrichment of 0.6. With CTTIHYNYMCK [TP53_Y234_N239K] the phosphorylation enrichment was 0.674. With RSGIYYKPESL [L2HGDH_Y103_H98R] the phosphorylation enrichment was 2.29. Work on LEISPYMLSGP [LRRK2_Y1718_R1723P] yielded a phosphorylation enrichment of 1.35. In the case of QLFGAYLRIHA [BSCL2_Y213_YF], the phosphorylation enrichment is reported as 1.37. Work on CDIARYIVSQL [MAST2_Y461_P459A] yielded a phosphorylation enrichment of 0.827. Sequence GNLLIYTELGK [HGD_Y166_F169L] has a phosphorylation enrichment of 1.21. KRAIGYFSATS [FAM120A_Y327_YF] showed a phosphorylation enrichment of 0.612. KTVQDYLKKFF [MMP8_Y36_E38K_YF] showed a phosphorylation enrichment of 0.795. Work on YEKFLYFLPAS [DYNC2H1_Y346_H341Y] yielded a phosphorylation enrichment of 2.7. VPVNGYQPVPA [ROR2_Y824] gave a phosphorylation enrichment of 0.416. In the case of CIILLYIFLKN [STXBP1_Y411_R406C], the phosphorylation enrichment is reported as 0.553. Sequence TNRSVYFKPSL [NUP153_Y382] has a phosphorylation enrichment of 0.66. With GHPYAYDWISI [BEST1_Y227_L224P] the phosphorylation enrichment was 0.794. In the case of STFVPYEIKVQ [L1CAM_Y784], the phosphorylation enrichment is reported as 0.805. FRQNVYIPGSN [PCDHGA1_Y895_YF] showed a phosphorylation enrichment of 0.584. Sequence QEALEYFMKQI [PIK3CA_Y1038_M1043I] has a phosphorylation enrichment of 1.53. In the case of QKNVSYVSRVS [TASOR_Y1043_T1046R], the phosphorylation enrichment is reported as 0.69. TFGQVYKGRHV [TNIK_Y40_YF] gave a phosphorylation enrichment of 0.598. IMVFVYCRVFQ [ADRB2_Y219_S220C] gave a phosphorylation enrichment of 0.699. REGKIYEYNQV [ZNF665_Y162_H157R] was tested, and the phosphorylation enrichment was 0.494. NTGGFYDLFGG [PTPN11_Y63_D61G_YF] showed a phosphorylation enrichment of 1.1.

Each sequence was assayed against SHP2-C SH2 (assay: SH2 binding enrichment of the phosphorylated peptide, bacterial display (enrichment ratio); higher = better substrate or ligand; peptides without Tyr show the background).
In the case of SLNEGYARDFD [FBP1_Y216], the SH2 binding enrichment is reported as 0.765. Work on SYPREYGSQEG [RBM10_Y48] yielded an SH2 binding enrichment of 0.76. In the case of CSRCFYQLTKL [AR_Y858_R856C], the SH2 binding enrichment is reported as 1.52. SSAAGYACLAY [MVD_Y131] showed an SH2 binding enrichment of 3.04. Sequence QNTADYFDLFG [PTPN11_Y62_G60A_YF] has an SH2 binding enrichment of 0.564. In the case of DNAFQYMLTDR [MYH7_Y164_YF], the SH2 binding enrichment is reported as 0.767. For GDFLSYREFHL [ERBIN_Y1107_S1112L_YF], the SH2 binding enrichment was 0.845. Sequence VGTTAYVAPEA [IRAK4_Y354_M355V] has an SH2 binding enrichment of 0.76. IEEGTYGVVFR [CDK11B_Y449_YF] showed an SH2 binding enrichment of 0.467. PQGVGYPQQQQ [EP300_Y2219_P2221Q] gave an SH2 binding enrichment of 0.835. GIVEDYRPPVY [ACVRL1_Y421_F425V] gave an SH2 binding enrichment of 0.524. With VTSLKYSTSPY [BRIP1_Y916] the SH2 binding enrichment was 0.42. CTTIHYNYMCK [TP53_Y234_N239K] gave an SH2 binding enrichment of 1.64. Sequence RSGIYYKPESL [L2HGDH_Y103_H98R] has an SH2 binding enrichment of 0.745. For LEISPYMLSGP [LRRK2_Y1718_R1723P], the SH2 binding enrichment was 0.465. In the case of QLFGAYLRIHA [BSCL2_Y213_YF], the SH2 binding enrichment is reported as 0.952. Sequence CDIARYIVSQL [MAST2_Y461_P459A] has an SH2 binding enrichment of 0.793. Sequence GNLLIYTELGK [HGD_Y166_F169L] has an SH2 binding enrichment of 0.478. In the case of KRAIGYFSATS [FAM120A_Y327_YF], the SH2 binding enrichment is reported as 0.851. KTVQDYLKKFF [MMP8_Y36_E38K_YF] showed an SH2 binding enrichment of 0.56. In the case of YEKFLYFLPAS [DYNC2H1_Y346_H341Y], the SH2 binding enrichment is reported as 1.19. With VPVNGYQPVPA [ROR2_Y824] the SH2 binding enrichment was 0.634. Sequence CIILLYIFLKN [STXBP1_Y411_R406C] has an SH2 binding enrichment of 1.74. TNRSVYFKPSL [NUP153_Y382] was tested, and the SH2 binding enrichment was 2.21. GHPYAYDWISI [BEST1_Y227_L224P] was tested, and the SH2 binding enrichment was 1.07. STFVPYEIKVQ [L1CAM_Y784] gave an SH2 binding enrichment of 0.726. Sequence FRQNVYIPGSN [PCDHGA1_Y895_YF] has an SH2 binding enrichment of 0.602. In the case of QEALEYFMKQI [PIK3CA_Y1038_M1043I], the SH2 binding enrichment is reported as 0.926. Sequence QKNVSYVSRVS [TASOR_Y1043_T1046R] has an SH2 binding enrichment of 1.21. TFGQVYKGRHV [TNIK_Y40_YF] gave an SH2 binding enrichment of 1.24. IMVFVYCRVFQ [ADRB2_Y219_S220C] showed an SH2 binding enrichment of 1.1. Work on REGKIYEYNQV [ZNF665_Y162_H157R] yielded an SH2 binding enrichment of 0.611. For NTGGFYDLFGG [PTPN11_Y63_D61G_YF], the SH2 binding enrichment was 0.784.

Each sequence was assayed against Grb2 SH2 (UniProt P62993) in the same assay as above.
Grb2 SH2, sequence (P62993 whole entry, looked up): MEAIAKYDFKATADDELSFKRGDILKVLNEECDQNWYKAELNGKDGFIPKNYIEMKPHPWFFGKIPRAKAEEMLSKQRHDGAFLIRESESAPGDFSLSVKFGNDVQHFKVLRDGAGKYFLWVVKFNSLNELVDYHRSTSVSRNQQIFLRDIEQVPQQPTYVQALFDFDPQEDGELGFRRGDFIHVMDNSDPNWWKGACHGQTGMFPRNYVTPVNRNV
SLNEGYARDFD [FBP1_Y216] was tested, and the SH2 binding enrichment was 1.06. SYPREYGSQEG [RBM10_Y48] showed an SH2 binding enrichment of 0.852. For CSRCFYQLTKL [AR_Y858_R856C], the SH2 binding enrichment was 1.24. In the case of SSAAGYACLAY [MVD_Y131], the SH2 binding enrichment is reported as 0.721. With QNTADYFDLFG [PTPN11_Y62_G60A_YF] the SH2 binding enrichment was 0.924. Sequence DNAFQYMLTDR [MYH7_Y164_YF] has an SH2 binding enrichment of 0.923. Sequence GDFLSYREFHL [ERBIN_Y1107_S1112L_YF] has an SH2 binding enrichment of 0.786. VGTTAYVAPEA [IRAK4_Y354_M355V] was tested, and the SH2 binding enrichment was 0.938. IEEGTYGVVFR [CDK11B_Y449_YF] showed an SH2 binding enrichment of 0.722. PQGVGYPQQQQ [EP300_Y2219_P2221Q] showed an SH2 binding enrichment of 0.588. For GIVEDYRPPVY [ACVRL1_Y421_F425V], the SH2 binding enrichment was 0.825. With VTSLKYSTSPY [BRIP1_Y916] the SH2 binding enrichment was 0.754. CTTIHYNYMCK [TP53_Y234_N239K] showed an SH2 binding enrichment of 1.45. RSGIYYKPESL [L2HGDH_Y103_H98R] showed an SH2 binding enrichment of 0.935. For LEISPYMLSGP [LRRK2_Y1718_R1723P], the SH2 binding enrichment was 0.904. For QLFGAYLRIHA [BSCL2_Y213_YF], the SH2 binding enrichment was 1.28. Work on CDIARYIVSQL [MAST2_Y461_P459A] yielded an SH2 binding enrichment of 0.866. GNLLIYTELGK [HGD_Y166_F169L] showed an SH2 binding enrichment of 0.756. KRAIGYFSATS [FAM120A_Y327_YF] was tested, and the SH2 binding enrichment was 1.02. With KTVQDYLKKFF [MMP8_Y36_E38K_YF] the SH2 binding enrichment was 0.649. YEKFLYFLPAS [DYNC2H1_Y346_H341Y] showed an SH2 binding enrichment of 1.05. VPVNGYQPVPA [ROR2_Y824] showed an SH2 binding enrichment of 0.91. CIILLYIFLKN [STXBP1_Y411_R406C] showed an SH2 binding enrichment of 2.18. For TNRSVYFKPSL [NUP153_Y382], the SH2 binding enrichment was 0.948. For GHPYAYDWISI [BEST1_Y227_L224P], the SH2 binding enrichment was 1.1. In the case of STFVPYEIKVQ [L1CAM_Y784], the SH2 binding enrichment is reported as 0.85. FRQNVYIPGSN [PCDHGA1_Y895_YF] gave an SH2 binding enrichment of 0.804. Sequence QEALEYFMKQI [PIK3CA_Y1038_M1043I] has an SH2 binding enrichment of 0.704. Sequence QKNVSYVSRVS [TASOR_Y1043_T1046R] has an SH2 binding enrichment of 0.853. In the case of TFGQVYKGRHV [TNIK_Y40_YF], the SH2 binding enrichment is reported as 0.893. With IMVFVYCRVFQ [ADRB2_Y219_S220C] the SH2 binding enrichment was 1.41. For REGKIYEYNQV [ZNF665_Y162_H157R], the SH2 binding enrichment was 0.84. NTGGFYDLFGG [PTPN11_Y63_D61G_YF] gave an SH2 binding enrichment of 1.09.

The sequences below were run against c-Src SH2 in the same assay as above.
SLNEGYARDFD [FBP1_Y216] showed an SH2 binding enrichment of 0.562. Work on SYPREYGSQEG [RBM10_Y48] yielded an SH2 binding enrichment of 0.546. Sequence CSRCFYQLTKL [AR_Y858_R856C] has an SH2 binding enrichment of 1.18. For SSAAGYACLAY [MVD_Y131], the SH2 binding enrichment was 2.42. Work on QNTADYFDLFG [PTPN11_Y62_G60A_YF] yielded an SH2 binding enrichment of 0.558. DNAFQYMLTDR [MYH7_Y164_YF] gave an SH2 binding enrichment of 0.685. Work on GDFLSYREFHL [ERBIN_Y1107_S1112L_YF] yielded an SH2 binding enrichment of 0.556. VGTTAYVAPEA [IRAK4_Y354_M355V] showed an SH2 binding enrichment of 0.605. With IEEGTYGVVFR [CDK11B_Y449_YF] the SH2 binding enrichment was 0.349. Sequence PQGVGYPQQQQ [EP300_Y2219_P2221Q] has an SH2 binding enrichment of 0.249. With GIVEDYRPPVY [ACVRL1_Y421_F425V] the SH2 binding enrichment was 0.47. Work on VTSLKYSTSPY [BRIP1_Y916] yielded an SH2 binding enrichment of 0.43. CTTIHYNYMCK [TP53_Y234_N239K] was tested, and the SH2 binding enrichment was 3.07. RSGIYYKPESL [L2HGDH_Y103_H98R] gave an SH2 binding enrichment of 0.854. With LEISPYMLSGP [LRRK2_Y1718_R1723P] the SH2 binding enrichment was 0.517. With QLFGAYLRIHA [BSCL2_Y213_YF] the SH2 binding enrichment was 0.972. CDIARYIVSQL [MAST2_Y461_P459A] showed an SH2 binding enrichment of 0.578. In the case of GNLLIYTELGK [HGD_Y166_F169L], the SH2 binding enrichment is reported as 0.381. In the case of KRAIGYFSATS [FAM120A_Y327_YF], the SH2 binding enrichment is reported as 0.553. KTVQDYLKKFF [MMP8_Y36_E38K_YF] showed an SH2 binding enrichment of 0.42. YEKFLYFLPAS [DYNC2H1_Y346_H341Y] showed an SH2 binding enrichment of 2.21. VPVNGYQPVPA [ROR2_Y824] was tested, and the SH2 binding enrichment was 0.691. Sequence CIILLYIFLKN [STXBP1_Y411_R406C] has an SH2 binding enrichment of 1.49. With TNRSVYFKPSL [NUP153_Y382] the SH2 binding enrichment was 0.588. Sequence GHPYAYDWISI [BEST1_Y227_L224P] has an SH2 binding enrichment of 4.11. Sequence STFVPYEIKVQ [L1CAM_Y784] has an SH2 binding enrichment of 0.552. Work on FRQNVYIPGSN [PCDHGA1_Y895_YF] yielded an SH2 binding enrichment of 0.425. With QEALEYFMKQI [PIK3CA_Y1038_M1043I] the SH2 binding enrichment was 0.455. Sequence QKNVSYVSRVS [TASOR_Y1043_T1046R] has an SH2 binding enrichment of 0.369. TFGQVYKGRHV [TNIK_Y40_YF] gave an SH2 binding enrichment of 0.752. IMVFVYCRVFQ [ADRB2_Y219_S220C] was tested, and the SH2 binding enrichment was 0.768. REGKIYEYNQV [ZNF665_Y162_H157R] gave an SH2 binding enrichment of 1.56. Sequence NTGGFYDLFGG [PTPN11_Y63_D61G_YF] has an SH2 binding enrichment of 0.677.
